Experimental data reported in publication PMC6436938.

Columns and labels:
[1] = biological target: Impβ labeled with fluorescent Alexa 488 dye (human) (UniProt Q14974); test: native gel or EMSA
[2] = biological target: Impβ6M labeled with fluorescent Alexa 488 dye (human) (UniProt Q14974); test: native gel or EMSA
Impβ6M labeled with fluorescent Alexa 488 dye (human), sequence (Q14974 whole entry L174S/T175A/I178D/E214A/F217A/I218D): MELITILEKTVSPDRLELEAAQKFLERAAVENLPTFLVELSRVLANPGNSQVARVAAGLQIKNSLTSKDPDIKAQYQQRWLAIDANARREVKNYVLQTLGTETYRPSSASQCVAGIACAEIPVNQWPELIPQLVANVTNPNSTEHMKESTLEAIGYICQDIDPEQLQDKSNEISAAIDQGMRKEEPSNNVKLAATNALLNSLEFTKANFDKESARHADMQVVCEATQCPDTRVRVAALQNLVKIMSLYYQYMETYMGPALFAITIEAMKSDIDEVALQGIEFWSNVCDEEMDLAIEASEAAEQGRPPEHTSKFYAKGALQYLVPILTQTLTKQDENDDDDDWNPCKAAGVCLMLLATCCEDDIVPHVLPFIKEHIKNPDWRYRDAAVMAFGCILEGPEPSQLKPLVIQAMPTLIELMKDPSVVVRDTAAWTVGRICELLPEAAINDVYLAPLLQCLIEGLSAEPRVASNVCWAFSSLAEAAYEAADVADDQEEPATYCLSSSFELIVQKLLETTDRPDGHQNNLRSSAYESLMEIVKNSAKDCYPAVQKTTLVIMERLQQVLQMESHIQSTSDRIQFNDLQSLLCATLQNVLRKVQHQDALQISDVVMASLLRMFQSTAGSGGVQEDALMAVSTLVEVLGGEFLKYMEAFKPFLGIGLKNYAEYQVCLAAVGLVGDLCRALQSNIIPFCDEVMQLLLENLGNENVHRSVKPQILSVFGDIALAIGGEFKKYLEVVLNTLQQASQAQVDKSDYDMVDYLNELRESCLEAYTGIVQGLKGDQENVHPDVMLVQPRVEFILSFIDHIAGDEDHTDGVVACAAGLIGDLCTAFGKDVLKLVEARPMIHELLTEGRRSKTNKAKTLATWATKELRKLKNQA

Impβ labeled with fluorescent Alexa 488 dye (human), sequence (Q14974 whole entry): as the sequence (Q14974 whole entry L174S/T175A/I178D/E214A/F217A/I218D) above, with S174L, A175T, D178I, A214E, A217F, D218I counted along it

Substance	Kd [1] [nM]	Kd [2] [nM]
Impα F527S/F529S (from UniProt P52292 1-529) (natural protein)	920	
Imp7 F1019S (natural protein)	1220	
importin α (Impα, Kapα) (from UniProt P52292 1-529) (natural protein)	620	3340
Imp7 F1028S and F1030S (natural protein)	2890	
